# Source: patent US20230241113A1 (IMMATICS BIOTECHNOLOGIES, published 2023)
# B1: altORF-007 (peptide)
# peptide: FLQEGDLISV
# notes: also called FLQEGDLISV
# B2: altORF-051 (peptide)
# peptide: TISISLSSV
# notes: also called TISISLSSV
# B3: altORF-068 (peptide)
# peptide: LLLQIEPAA
# notes: also called LLLQIEPAA
# B4: LARS-001 (peptide)
# peptide: SLMEVTHDL
# notes: also called SLMEVTHDL
# B5: altORF-044 (peptide)
# peptide: AMVEIIPKV
# notes: also called AMVEIIPKV
# B6: altORF-052 (peptide)
# peptide: GLSPDQVFL
# notes: also called GLSPDQVFL
# B7: altORF-064 (peptide)
# peptide: ILNELLNSI
# notes: also called ILNELLNSI
# B8: altORF-062 (peptide)
# peptide: LLLALRLSL
# notes: also called LLLALRLSL
# B9: altORF-057 (peptide)
# peptide: LAASTTFLGV
# notes: also called LAASTTFLGV
# B10: altORF-036 (peptide)
# peptide: SLSAWLPSL
# notes: also called SLSAWLPSL
# B11: altORF-059 (peptide)
# peptide: VLPWQPLLL
# notes: also called VLPWQPLLL
# B12: HERVK-003 (peptide)
# peptide: TLLSYSIPL
# notes: From a human endogenous retrovirus; also called TLLSYSIPL
# B13: altORF-005 (peptide)
# peptide: ALWEEVKATSL
# notes: also called ALWEEVKATSL
# B14: altORF-039 (peptide)
# peptide: LMASEGIWESSL
# notes: also called LMASEGIWESSL
# B15: altORF-054 (peptide)
# peptide: IITNLIVNI
# notes: also called IITNLIVNI
# B16: altORF-069 (peptide)
# peptide: WLMPVMPAL
# notes: also called WLMPVMPAL
# B17: altORF-058 (peptide)
# peptide: LLLATLENL
# notes: also called LLLATLENL
# B18: altORF-049 (peptide)
# peptide: GLLTQVHIL
# notes: also called GLLTQVHIL
# B19: altORF-043 (peptide)
# peptide: ALYHQSPLL
# notes: also called ALYHQSPLL
# B20: altORF-063 (peptide)
# peptide: IAISQLTFV
# notes: also called IAISQLTFV
# B21: CIZ1-001 (peptide)
# peptide: SLGPPPVGV
# notes: also called SLGPPPVGV
# B22: CDC2-006 (peptide)
# peptide: GLIDDKGTIKL
# notes: also called GLIDDKGTIKL
# B23: altORF-060 (peptide)
# peptide: SLLGKPGLTI
# notes: also called SLLGKPGLTI
# B24: altORF-040 (peptide)
# peptide: WITPVIPAL
# notes: also called WITPVIPAL
# B25: altORF-065 (peptide)
# peptide: ALKELMGPA
# notes: also called ALKELMGPA
# B26: altORF-047 (peptide)
# peptide: FLWDPRDVVL
# notes: also called FLWDPRDVVL
# B27: altORF-048 (peptide)
# peptide: GLASYLDRV
# notes: also called GLASYLDRV
# B28: altORF-002 (peptide)
# peptide: YLGDSHVLL
# notes: also called YLGDSHVLL
# B29: altORF-006 (peptide)
# peptide: ILQSLVPAA
# notes: also called ILQSLVPAA
# B30: altORF-038 (peptide)
# peptide: FTLPFLVNL
# notes: also called FTLPFLVNL
# B31: altORF-061 (peptide)
# peptide: LSFKRSLSI
# notes: also called LSFKRSLSI
# B32: KRT18-001 (peptide)
# peptide: KIIEDLANTV
# notes: also called KIIEDLANTV
# B33: altORF-050 (peptide)
# peptide: LAFVSHVLI
# notes: also called LAFVSHVLI
# B34: AHNAK2-003 (peptide)
# peptide: KLPEGHLPEV
# notes: also called KLPEGHLPEV
# B35: altORF-037 (peptide)
# peptide: YIYEDEVRL
# notes: also called YIYEDEVRL
# B36: altORF-046 (peptide)
# peptide: MLAEIHPKA
# notes: also called MLAEIHPKA
# B37: BSG-001 (peptide)
# peptide: ALMDGSESRFFV
# notes: also called ALMDGSESRFFV
# B38: altORF-003 (peptide)
# peptide: LVWEVVESV
# notes: also called LVWEVVESV
# B39: altORF-055 (peptide)
# peptide: YVLMTSLLL
# notes: also called YVLMTSLLL
# B40: altORF-004 (peptide)
# peptide: ALHDSPVYL
# notes: also called ALHDSPVYL
# B41: HERVK-002 (peptide)
# peptide: STTIINLIL
# notes: From a human endogenous retrovirus; also called STTIINLIL
# B42: altORF-045 (peptide)
# peptide: ALLPGVPGL
# notes: also called ALLPGVPGL
# B43: altORF-042 (peptide)
# peptide: WLIPRQLAAA
# notes: also called WLIPRQLAAA
# B44: altORF-053 (peptide)
# peptide: MVQQEKLFV
# notes: also called MVQQEKLFV
# B45: altORF-067 (peptide)
# peptide: LLCPVVLQL
# notes: also called LLCPVVLQL
# B46: altORF-066 (peptide)
# peptide: KLLADAFKV
# notes: also called KLLADAFKV
# B47: altORF-056 (peptide)
# peptide: MIISHRALEL
# notes: also called MIISHRALEL
# B48: altORF-041 (peptide)
# peptide: AIWSTILIA
# notes: also called AIWSTILIA
# B49: altORF-035 (peptide)
# peptide: KILDEFYNV
# notes: also called KILDEFYNV
# Molecular target: T1, HLA-A*02:01 (human)
# T1 construct: captured on streptavidin plates, detected with anti-β2m; also called peptide-receptive MHC molecules; MHC class I
# Experiment: UV-ligand exchange + anti-β2m ELISA; exchange yield grade: ≥10% +, ≥20% ++, ≥50 +++, ≥75% ++++
# Protocol: The individual peptide-MHC complexes were produced by UV-ligand exchange, where a UV-sensitive peptide is cleaved upon UV-irradiation and exchanged with the peptide of interest as analyzed. Only peptide candidates that can effectively bind and stabilize the peptide-receptive MHC molecules prevent dissociation of the MHC complexes. To determine the yield of the exchange reaction, an ELISA was performed based on the detection of the light chain (β2m) of stabilized MHC complexes. The assay was performed as generally described in Rodenko et al. (Rodenko et al., 2006).
# 96 well MAXISorp plates (NUNC) were coated over night with 2 μg/ml streptavidin in PBS at room temperature, washed 4× and blocked for 1 h at 37° C. in 2% BSA containing blocking buffer. Refolded HLA-A*02:01/MLA-001 monomers served as standards, covering the range of 15-500 ng/ml. Peptide-MHC monomers of the UV-exchange reaction were diluted 100 fold in blocking buffer. Samples were incubated for 1 h at 37° C., washed four times, incubated with 2 μg/ml HRP conjugated anti-β2m for 1 h at 37° C., washed again and detected with TMB solution that is stopped with […]. Absorption was measured at 450 nm. Candidate peptides that show a high exchange yield (preferably higher than 50%, most preferred higher than 75%) are generally preferred for a generation and production of antibodies or fragments thereof, and/or T cell receptors or fragments thereof, as they show sufficient avidity to the MHC molecules and prevent dissociation of the MHC complexes.
row,Binder,peptide exchange yield [%]
1,B1,≥ 75
2,B2,≥ 75
3,B3,≥ 75
4,B4,≥ 75
5,B5,≥ 75
6,B6,≥ 75
7,B7,≥ 75
8,B8,10 to 20
9,B9,≥ 75
10,B10,≥ 75
11,B11,20 to 50
12,B12,≥ 75
13,B13,≥ 75
14,B14,50 to 75
15,B15,50 to 75
16,B16,≥ 75
17,B17,≥ 75
18,B18,≥ 75
19,B19,≥ 75
20,B20,≥ 75
21,B21,≥ 75
22,B22,≥ 75
23,B23,≥ 75
24,B24,≥ 75
25,B25,20 to 50

row,Binder,peptide exchange yield [%]
1,B26,≥ 75
2,B27,≥ 75
3,B28,≥ 75
4,B29,≥ 75
5,B30,≥ 75
6,B31,20 to 50
7,B32,≥ 75
8,B33,20 to 50
9,B34,≥ 75
10,B35,≥ 75
11,B36,≥ 75
12,B37,≥ 75
13,B38,≥ 75
14,B39,≥ 75
15,B40,≥ 75
16,B41,20 to 50
17,B42,≥ 75
18,B43,≥ 75
19,B44,50 to 75
20,B45,≥ 75
21,B46,≥ 75
22,B47,20 to 50
23,B48,20 to 50
24,B49,≥ 75
